Experimental data from PMC3154279, “ADP-Ribosylation Factor 6 Mediates E-Cadherin Recovery by Chemical Chaperones” (PLoS ONE, 2011).

Columns and labels:
Assay in all cases: proximity ligation; Duolink PLA on methanol-fixed CHO cells stably expressing WT or mutant hE-cadherin, treated with medium or 2% DMSO for 24 h; antibody pairs against E-cadherin and PIP5K1C, p120 or β-catenin; spots per cell counted (BlobFinder), relative number of blobs per cell, n = 3
[1] = target: Type Iγ phosphatidylinositol phosphate kinase (PIPKIγ) (Chinese hamster (endogenous in CHO))
[2] = target: p120-catenin (Chinese hamster (endogenous in CHO))
β-catenin = target: T1, β-catenin (Chinese hamster (endogenous in CHO), UniProt G3H996 1-781); settings: partners not purified
T1 construct: β-catenin, endogenous in CHO (Chinese hamster ovary) cells, detected with an anti-β-catenin antibody; source: endogenous, CHO cells, fixed
T1 sequence (looked up): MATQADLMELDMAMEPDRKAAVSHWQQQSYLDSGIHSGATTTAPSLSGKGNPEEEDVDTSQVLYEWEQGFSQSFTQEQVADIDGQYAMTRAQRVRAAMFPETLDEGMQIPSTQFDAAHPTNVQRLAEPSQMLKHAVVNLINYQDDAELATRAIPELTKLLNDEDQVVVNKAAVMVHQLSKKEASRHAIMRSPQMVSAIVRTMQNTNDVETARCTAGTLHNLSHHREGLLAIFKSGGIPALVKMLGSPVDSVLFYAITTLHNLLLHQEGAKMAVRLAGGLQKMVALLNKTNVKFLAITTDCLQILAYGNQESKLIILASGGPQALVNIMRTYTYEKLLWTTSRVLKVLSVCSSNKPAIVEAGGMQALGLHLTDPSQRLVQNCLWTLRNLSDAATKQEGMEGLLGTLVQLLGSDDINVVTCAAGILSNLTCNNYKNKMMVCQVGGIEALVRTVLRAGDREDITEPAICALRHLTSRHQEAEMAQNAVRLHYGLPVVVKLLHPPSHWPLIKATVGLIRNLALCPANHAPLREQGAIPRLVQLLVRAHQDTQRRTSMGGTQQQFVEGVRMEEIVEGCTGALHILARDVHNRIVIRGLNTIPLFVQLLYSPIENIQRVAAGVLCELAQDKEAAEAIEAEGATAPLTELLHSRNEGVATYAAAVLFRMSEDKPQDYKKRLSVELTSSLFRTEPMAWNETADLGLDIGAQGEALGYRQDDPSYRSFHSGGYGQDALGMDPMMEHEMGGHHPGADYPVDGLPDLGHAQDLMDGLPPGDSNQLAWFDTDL

B1: WT human E-cadherin (natural protein, UniProt P12830 155-882, looked up)
chain: DWVIPPISCPENEKGPFPKNLVQIKSNKDKEGKVFYSITGQGADTPPVGVFIIERETGWLKVTEPLDRERIATYTLFSHAVSSNGNAVEDPMEILITVTDQNDNKPEFTQEVFKGSVMEGALPGTSVMEVTATDADDDVNTYNAAIAYTILSQDPELPDKNMFTINRNTGVISVVTTGLDRESFPTYTLVVQAADLQGEGLSTTATAVITVTDTNDNPPIFNPTTYKGQVPENEANVVITTLKVTDADAPNTPAWEAVYTILNDDGGQFVVTTNPVNNDGILKTAKGLDFEAKQQYILHVAVTNVVPFEVSLTTSTATVTVDVLDVNEAPIFVPPEKRVEVSEDFGVGQEITSYTAQEPDTFMEQKITYRIWRDTANWLEINPDTGAISTRAELDREDFEHVKNSTYTALIIATDNGSPVATGTGTLLLILSDVNDNAPIPEPRTIFFCERNPKPQVINIIDADLPPNTSPFTAELTHGASANWTIQYNDPTQESIILKPKMALEVGDYKINLKLMDNQNKDQVTTLEVSVCDCEGAAGVCRKAQPVEAGLQIPAILGILGGILALLILILLLLLFLRRRAVVKEPLLPPEDDTRDNVYYYDEEGGGEEDQDFDLSQLHRGLDARPEVTRNDVAPTLMSVPRYLPRPANPDEIGNFIDENLKAADTDPTAPPYDSLLVFDYEGSGSEAASLSSLNSSESDKDQDYDYLNEWGNRFKKLADMYGGGEDD
notes: E-cadherin, human, wild type, expressed from a transduced vector in CHO cells; also called WT hE-cad; WT hEcadherin; source: CHO cells (ATCC CCL-61), stably transduced, in fixed cells
**Q.** Which results are given for B1?
**A.** fold increase of PLA blobs per cell with 2% DMSO against untreated WT [1]: 2.3 fold; fold increase of PLA blobs per cell with 2% DMSO against untreated WT [2]: 4.2 fold; fold increase of PLA blobs per cell with 2% DMSO against untreated WT (β-catenin): 1.8 fold
